B1: N-terminal 3×-FLAG-tagged p52 (WT) [human] / p44 [human (endogenous in HEK293T)] (parent)
chain 1: MESTPSRGLNRVHLQCRNLQEFLGGLSPGVLDRLYGHPATCLAVFRELPSLAKNWVMRMLFLEQPLPQAAVALWVKKEFSKAQEESTGLLSGLRIWHTQLLPGGLQGLILNPIFRQNLRIALLGGGKAWSDDTSQLGPDKHARDVPSLDKYAEERWEVVLHFMVGSPSAAVSQDLAQLLSQAGLMKSTEPGEPPCITSAGFQFLLLDTPAQLWYFMLQYLQTAQSRGMDLVEILSFLFQLSFSTLGKDYSVEGMSDSLLNFLQHLREFGLVFQRKRKSRRYYPTRLAINLSSGVSGAGGTVHQPGFIVVETNYRLYAYTESELQIALIALFSEMLYRFPNMVVAQVTRESVQQAIASGITAQQIIHFLRTRAHPVMLKQTPVLPPTITDQIRLWELERDRLRFTEGVLYNQFLSQVDFELLLAHARELGVLVFENSAKRLMVVTPAGHSDVKRFWKRQKHSS
chain 2: MDEEPERTKRWEGGYERTWEILKEDESGSLKATIEDILFKAKRKRVFEHHGQVRLGMMRHLYVVVDGSRTMEDQDLKPNRLTCTLKLLEYFVEEYFDQNPISQIGIIVTKSKRAEKLTELSGNPRKHITSLKKAVDMTCHGEPSLYNSLSIAMQTLKHMPGHTSREVLIIFSSLTTCDPSNIYDLIKTLKAAKIRVSVIGLSAEVRVCTVLARETGGTYHVILDESHYKELLTHHVSPPPASSSSECSLIRMGFPQHTIASLSDQDAKPSFSMAHLDGNTEPGLTLGGYFCPQCRAKYCELPVECKICGLTLVSAPHLARSYHHLFPLDAFQEIPLEEYNGERFCYGCQGELKDQHVYVCAVCQNVFCVDCDVFVHDSLHCCPGCIHKIPAPSGV

Variants of: B1
Assay: FLAG-IP LC–MS (iBAQ)
Details: with p44 [human (endogenous in HEK293T)]; HEK293T nuclear extracts; n = 3, biological replicates; read off a plot

| Variant | response (Normalized Log2 iBAQ) |
| --- | --- |
| chain 1 E310F | 0.64 |
| chain 1 E310A R314A | 0.66 |

Continued, values first:

| response (Normalized Log2 iBAQ) | Variant |
| --- | --- |
| 0.66 | chain 1 Y316A Y318A |
| 0.71 | chain 1 R337A F338A |

Source: publication PMC9557730
